The DeepSol protein solubility set

Assay: soluble on expression in E. coli; label from the status in PepcDB or PDB records

Row | Sequence | soluble on expression in E. coli
1 | MSLNLLFTGASGFLGYNVLPLLKKKYSVETIGLTSQDDYIVNLAAEIPKLAGKYDVILHVAGKAHSLPKTEAEKRLFFDVNLQGTKNLCTALEQSGIPKSFIFISTVAVYGCDSGENITEEYPLNGTTPYALSKIKAEKYLEEWCAMHNVKLSILRPSLIAGPNPPGNLGAMIHGIKSGKYLSIAGGKAQKSVLMVQDIANLVPLLIEKGGIYNVCDSYQPSFRELEMVICKQLNKKLPLSIPYWFAKSMAVFGDCFGEKAPINSLKLRKITHSLTFSNEKAMRELGWKPMNVLKNFREGHHHHHH | soluble
2 | MSKTYHFIGIKGSGMSALALMLHQMGHNVQGSDVDKYYFTQRGLEQAGVTILPFSPNNISEDLEIIAGNAFRPDNNEELAYVIEKGYQFKRYHEFLGDFMRQFTSLGVAGAHGKTSTTGLLAHVLKNITDTSFLIGDGTGRGSANANYFVFEADEYERHFMPYHPEYSIITNIDFDHPDYFTGLEDVFNAFNDYAKQVQKGLFIYGEDPKLHEITSEAPIYYYGFEDSNDFIAKDITRTVNGSDFKVFYNQEEIGQFHVPAYGKHNILNATAVIANLYIMGIDMALVAEHLKTFSGVKRRFTEKIIDDTVIIDDFAHHPTEIIATLDAARQKYPSKEIVAIFQPHTFTRTIALLDEFAHALSQADSVYLAQIYGSAREVDNGEVKVEDLAAKIVKHSDLVTVENVSPLLNHDNAVYVFMGAGDIQLYERSFEELLANLTKNTQ | not soluble
3 | MGSDKIHHHHHHMLQPHEMHLAGDLLDFLRDPSTAIARDFATQATLMRIASGATVFAEGDECSFFAILADGQIRVFKIGETGREITLYRFGRGESCILTTSCVLSNHQFPAIAVVEREATAFLVGQAIFRDWIERYSAWRDYVFQLLSRRLASVMAIIDEIAFRRVDVRLAAFLLRQAVGDPPTLNLTHQQIAAELGTSREVVSRILADFSEEGLISSSRGQITVCDRTRLYQRSEAR | not soluble
4 | MTHTVHLHLEETDNLALQRLCGSFDNNLDLLAKALDIHISRRFEHFTFNGAFAHAGKRALLKLLETAQTRDLNDGDIRLAAVEAQTEDAGHQEKNHDHAYYFRTKRGSIGGRTPRQNGYIRALLNHDIVFGLGPAGTGKTYLAVAAAVDAMEKHQVERIILVRPAVEAGEKLGFLPGDLTQKVDPYLRPLYDALYDLMGFDRVTKLIEKGLIEIAPLAYMRGRTLNGAYIILDEAQNTTPEQMKMFLTRIGFGAKAVITGDTSQIDLPKNIKSGLKDAREKLHNVEGLYFHTFTGEDVVRHPLVQKIVEAYESAEHD | not soluble
5 | MAHHHHHHMRVLSGVELEAVNRVVEHLRCHPEDLHRNEFRELREYMASLGASIPPPPDTPDVSGVRKEANSDDEEEYVSEPDSQRCALEPVSDDDITAYDGTDPTPEDEERAMGLKAQAAELAADGDFDKAIELMGQALRIVPGKAMYWAQRASYFLKCTQPGAALQDANRALDLNPENVRALRVRGTVNRRLGKWEEALKDLSEAQAVDYDEGIDEILRFVQKRTNDRRQFQQRKKEAQRLRQEALRRQREHELREEEMKREQQQQRDQQQSGAGDFPGGAGGFPGGFPGGAGGGGMQSFMESLFQDQELAEAMKDPEVAAKLATLRSNPMAALQMMGDPKVGPLIQKMMSKAMGGSSPGSSPFGAGASAGATSHADAHHSDELD | soluble
6 | MESGREVWPRDPKKAKQAIKQAEFKCEIDDTHETFVSEASRKNYMEAHHLIPLRMQHDFENSLDVVGNIVSICPNCHRLIHYGRDKDKKKVLELLFELEHHHHHH | soluble
7 | MNSSESSSNSEVSSSKTRTVKHAMGTSDNIPANPKRIVVLTNEGTEALLALGIKPVGAVKSWKGDPWYDYLKDDMKGVKNVGLETEPNVEAIAELKPDLIIGNKVRQEKIYDQLNAIAPTVFAESLAGNWKDNLTLYANAVNKADKGKEVIADFDKRVSDLKNKLGDQTNKTVSVVRFLSGESRIYYTDSFPGIILDQLGFKRPEKQVELFKKQKDQFTFSTDSKESIPDMDADVLFYFTYKADNAKENEKWANQWTSSSLWKNLKAVKSGNAHEVDDVVWTTAGGIKAANYLLDDIETYFLKTKLEHHHHHH | not soluble
8 | MGAQGSRVDFKQVVLDVTSKPGKDDETFWDQAWWPDSVNEIFAMISGEDIRKLRDESPKNLATLVYKTVEKLQFSRNHPATIDQKKTINAIRLLTRIVPYLLEDAEWRGYFWSPIPHGDAAKPLAAVLLETLSDLLFCPEFTITHANGQKIDDLSTIDSCEYIWEAGVGSGNKPPMVALHYQNRTEILKLLLTCFAELIYAPVSDETRLRWVIHFTSVTNPHVLPIFTSLLNIVCAYDPVGYGLPYNYLLFNDSREPLVEIALQVLIVCLDKETQPNTDDSGYKDNYFINYLSRIHREEDFDFMLKGITRLLSNPIHSSSSYLPNSTKRVNFHQELLVLLWKCCEINQKFMFYVLKTSDVLDILVPILYHISDARNDSGRVGLIHMGVFIILLLSGERNFGVRLNKPYTAKANINVQTFTGTHADLLILVIHKLITTGNYRLQTLFDCFLTIMVNVSPYMKSLSMVAANKLVHLVEAFSTPWFLFSSPTNPQLVFSLLEVFNNVIQYQFDGNSNLIYTIIRKRNVFYQLSNLSTDAASIAKTLSGRKSKSANRDEMVDQLKSPTSTAPPEIPAADAPAAQTLGGVSTTTGLAATPALASMTGNVGNWEERPESSQDNEWIATQEWADAWKSKLPLQTIMRLLQVLVPQVEKICIDKGLTDESEILKFLQHGTLVGLLPVPHPIVIRRYQTNIGTNHWFRIYMWGVIYLKHTQPPIWYDTDVKLFEVQRA | not soluble
9 | LVSITDLQGRILYANDNFCAVSRYGREELVGQDHRIVNSGYHGKAYIRDMWRTISRGNIWQGEFCNRRKDGTRYWVDSTIVPLMDNAGKPRQYISIRRDITAQKEAEAQLARLKQAMDANSEMILLTDRAGRIIYANPALCRFSGMAEGELLGQSPSILDSPLADQETLAAMQEALQAGQPWSGRLLNRRRTGPAPHDAEDYWAEISTTPIHTDGNGLVGYVQIQHD | soluble
10 | GSHMQQWVDCEFTGRDFRDEDLSRLHTERAMFSECDFSGVNLAESQHRGSAFRNCTFERTTLWHSTFAQCSMLGSVFVACRLRPLTLDDVDFTLAVLGGNDLRGLNLTGCRLRETSLVDTDLRKCVLRGADLSGARTTGARLDDADLRGATVDPVLWRTASLVGARVDVDQAVAFAAAHGLCLAGG | soluble
11 | SASGYQFGSVDQVEGGSVQYTRKYLGTGNLNDLYVGIGATPFKNFSIGANASSLFGRFTHSRQVIFSTEAPYNPVHLSTLYLKAAKFDFGMQYHLLLKSDRSLVIGAVYSPRVKMHSELTQIKNQVQNGVVVESETQEYIKGMDYYTLPHTLGIGFSYEKKDKLLLGADVQYSKWKGEKFYKSDCKFQDRIRVSLGGEIIPDINAVGMWPKVRYRFGLHGENSYLKVPTKGGV | not soluble
12 | MSLNKEQLKSLVIKTIDENREKILKIGQGIYKNPEYGYKEFKTTEAVSNFFEQELNLSVEKNIAVTGCKADANSSKKGPHISILGELDGISCKEHKDANEIGASHTCGHNIQIAGMLGAAVGLVKSGVLEHLDGKVSFMATPAEEFIELEYREQLKKEGKITYFGGKQELIKRGYFDDIDISMMFHASDLGEDKALVGPESNGFVGKKVKFIGKESHAGSAPHDGINALNAAMLAINNVNALRETFKESERVRFHPIITKGGDIVNVVPADVHMESYVRARTINGMIDANERINKALMAGGMAVGADVEITEIPGYLPILRYKSLDNLFKNNLEDLGLKGKVIDGGDFTGSFDFGDVSHIMPTLHPMIGGVKGALHTRDFEIVDEDLAYIIPAKAMALTVVDLLFDNAKDAKDILDTFTPVMTKKEYLTFLEKHDKTEGHHHHHH | soluble
13 | MRMKPYSELTREELLELKKDLSAQYHAFQGKDLKLDMSRGKPSVEQLDLSMGMMDVLNSDCDLTCEDGTDCRNYGVLDGIREAKELLGDMIEVPADNIIIYGNSSLNVMYDTISRSMTHGVMGNTPWCKLDKVKFLCPVPGYDRHFAITEYFGIEMVNVPMTEEGPDMDIVEELVSKDESIKGIWCVPKYSNPTGNSYSDQTVRRFARLKPAAADFRIYWDNAYSVHHLYDDDQDNLIEILAECKRAGNPDLAYKFSSTSKISFPGSGIAAVATSHNNLEDIKKQLRMQTIGHDKVNQLRHVRYFKNIHGMVEHMRKHAEILRPKFEAVEAILERELGGLGIGSWTSPKGGYFISFDSMDGCAKDIVAKCKKAGVVMTGAGATYPYGKDPHDSNIRIAPSYPPLQDLITATELFALCVKIVTVNKLLGATK | not soluble
14 | MAHHHHHHMRKLSGDLKATAATPLTPPVTTPQPQPDGTDRSKSAGGQATYEPLHVLGQGSFGVVMMARVRETGKMVAVKKVLFDRRLHHRELLLLRDHLGPGTHAGQAGTGNHDDPGKEAGKTDPSNTNNSAGEVGFTPLGDLASVPTTVSYHPCIVRLLDHFTVAGPNGEQYLYIVMDYLPLDIHHLHHIYLRQKQQRMPFILVKVIMFQLARALMFLHLRGICHRDVKPSNLLIDPETGVLKLCDFGSAKVMQPQGVNGPIEKNVSYICSRYYRAPELLLGSLYYHFHVDMWAAGCVLAELLCGEVLFKGASTVDQMAEIFKVLGAPSRQELLALNPQGAEALFHATGAGLEVTPTSAANTATSSDYLQRYHALRIKALQWQNVLPPNTPPAAVSLVGELLRYTPAERLSAAEVLEHSFFDDIFAEDASLPNGAPLPVSMFEVTAEEMEALPPWLLERMASAEASARRRHVSAGGSGKVVPPQKRQEQEGRK | not soluble
15 | MAHHHHHHMFQRARFLLLPIDDVLPAGSRWSRVTALPTSHAHPSGASRASRTGPVTANTTSALPPTPYITFIPTLHVASVKFYDAVLDYMRESVEKNSNVVVLLEGICDNKEGRIQQMDEYMQISRSEELRAAMLEKAEKNTLYNDETIRTICDELAVNYDVLSRELETVRLQECYLRPKMAALMGKNLCNEADIDMEEVEALMLEGDNNDHSGSYGACGSGSVVPITSIGSHPAVRRSREMKVARKARATCVDWLKHGVAGEVILPWGIYHVEGIQRNVLSLNAQDEGIVFVESGNDIRHVPFGIHRDLLVL | not soluble
16 | MGSDKIHHHHHHMQSFKIIKPIHILTPYVRYYWILEDGADVSVSERTLPTGCIQLVFHRGKRLLLVGKKESQPQAFICGQCLNFSDVMSAGKIEMITVVFQPYAARAILQLPLKFFYGELIAVDAIADLELSILSRKVIEADDHETCIRLIEQFLIHRLYRFEGYEYNLKRISAVLHQINEQAKTNISELSETACLSSKQFNRIFLDYVGATPKEFLRIVRMQRALFKVQQNPSISFAQLAYECGFSDQSHMIKEFKLFSGYTPTEYLSLCAPYSDYFSE | not soluble
17 | MSLMELQGKFLIAMPHLDDYFNRTVVFMCEHNEQGSMGLVINQPTDLSIAELYSKLNFMMKNDRTFGNEMVVAGGPMHTERGFILHKNTLNAFQHTYKVTKELSMTTSADVVETLGSTFAPEKYLVALGCSSWGAGQLEKEIRDNAWLVVSSNDQILFDMPYEDRYAAANQLLGIHPYNFALAQVGHSEGGSHHHHHH | soluble
18 | MLQCYNCPNPTADCKTAVNCSSDFDACLITKAGLQVYNKCWKFEHCNFNDVTTRLRENELTYYCCKKDLCNFNEQLENC | soluble
